Experimental data reported in patent publication US20070293451A1 (UNIVERSITY OF PITTSBURGH, published 2007).
Each block holds one binder with its values, some of them ahead of it. Ends that are not written are not given here. * marks the point of attachment. 6FAM = O=C1OC2(c3ccc(O)cc3Oc3cc(O)ccc32)c2cc(C(=O)*)ccc21; Ahx = NCCCCCC(=O)O

Columns and labels:
[1] = biological target: T1, full length Sse1p (yeast Hsp110) (Saccharomyces cerevisiae (yeast), UniProt P32589 2-693); assay: fluorescence anisotropy
T1 construct: Purified as in Goeckeler et al., 2002; also called Sselp
T1 sequence: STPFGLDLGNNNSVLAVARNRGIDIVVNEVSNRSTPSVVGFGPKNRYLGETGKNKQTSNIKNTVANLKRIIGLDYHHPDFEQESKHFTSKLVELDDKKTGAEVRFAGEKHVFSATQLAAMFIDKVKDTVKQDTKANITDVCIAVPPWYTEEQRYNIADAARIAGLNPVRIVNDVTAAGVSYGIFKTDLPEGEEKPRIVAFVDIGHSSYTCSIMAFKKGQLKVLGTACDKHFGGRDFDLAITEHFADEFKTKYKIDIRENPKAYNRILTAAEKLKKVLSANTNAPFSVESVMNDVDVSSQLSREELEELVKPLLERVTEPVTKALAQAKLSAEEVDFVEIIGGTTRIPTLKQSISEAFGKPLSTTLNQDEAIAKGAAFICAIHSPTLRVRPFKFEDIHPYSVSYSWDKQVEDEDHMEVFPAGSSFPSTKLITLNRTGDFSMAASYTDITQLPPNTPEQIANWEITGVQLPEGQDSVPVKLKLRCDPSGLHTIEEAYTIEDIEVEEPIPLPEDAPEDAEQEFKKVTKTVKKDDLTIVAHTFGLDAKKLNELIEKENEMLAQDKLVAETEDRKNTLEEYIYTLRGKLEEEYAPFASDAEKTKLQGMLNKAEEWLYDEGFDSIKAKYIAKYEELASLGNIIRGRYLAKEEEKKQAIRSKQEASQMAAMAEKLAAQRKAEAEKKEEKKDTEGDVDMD
Protocol: (§1) In this assay, full length Sse1p and the peptide binding domain of Sse1p were bound to a 6-carboxyfluorescein-aminohexanoic acid-N-terminal-linked-polypeptide having the sequence N-[…]-C (SEQ ID NO: 1), which was derived from firefly luciferase. Binding was assessed by fluorescence anisotropy. […] Unlabeled peptide competes for binding (data not shown).

[2] = biological target: T2, peptide binding domain of Sse1p (Saccharomyces cerevisiae (yeast), UniProt P32589 375-693, limits assumed); assay: fluorescence anisotropy; reference is full-length Sse1p
T2 sequence: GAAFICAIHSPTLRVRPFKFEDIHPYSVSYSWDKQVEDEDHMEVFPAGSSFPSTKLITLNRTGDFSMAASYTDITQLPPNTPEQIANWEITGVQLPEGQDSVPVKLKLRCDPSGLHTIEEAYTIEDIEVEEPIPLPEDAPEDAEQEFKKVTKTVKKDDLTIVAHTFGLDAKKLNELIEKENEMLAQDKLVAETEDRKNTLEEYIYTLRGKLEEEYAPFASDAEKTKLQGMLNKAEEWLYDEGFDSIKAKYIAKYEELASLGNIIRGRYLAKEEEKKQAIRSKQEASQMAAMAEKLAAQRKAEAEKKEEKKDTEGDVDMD
Protocol: as §1

[3] = biological target: T1, full length Sse1p (yeast Hsp110); assay: fluorescence anisotropy competition against the labeled peptide

Kd [1]: 2 to 3 nM
fold lower affinity than full-length Sse1p [2]: ~100 fold
B1: 6-carboxyfluorescein-aminohexanoic acid-N-terminal-linked polypeptide LICGFRVVLMYRF (derived from firefly luciferase) (peptide)
peptide: {6FAM-Ahx}-LICGFRVVLMYRF
notes: also called fluorescently labeled peptide

binding result [3]: binds
Binder: LICGFRVVLMYRF [unlabeled peptide LICGFRVVLMYRF]
